Experimental data from US11026972B2, “Methods for generating macrophages with enhanced cancer phagocytosis” (Georgia State University Research Foundation, Inc., priority 2016, dated 2021).

B1: IL-17: recombinant murine cytokine interleukin IL-17 (also known as IL-17A), PeproTech (protein, UniProt Q62386 26-158, looked up)
Interleukin-17A: AAIIPQSSACPNTEAKDFLQNVKVNLKVFNSLGAKVSSRRPSDYLNRSTSPWTLHRNEDPDRYPSVIWEAQCRHQRCVNAEGKLDHHMNSVLIQQEILVLKREPESCPFTFRVEKMLVGVGCTCVASIVRQAA

Legend:
[1] = system: SIRPα^−/− and CD47^−/− mice; assay: Acute anemia and splenomegaly in mice deficient of CD47-SIRPα-mediated inhibition under inflammatory conditions; format: in vivo, mouse
Text: FIGS. 1A-1K illustrate our assessment of acute anemia in mice deficient of CD47-SIRPα-mediated inhibition under inflammatory conditions. FIG. 1A includes a schematic drawing of a wild type (WT) and targeted allele of SIRPα (“SIRPα”) and data related to the generation of SIRPα “knock out” (KO) mice. […] Western blot (WB) analysis confirmed the depletion of SIRPα (˜120 kDa) protein in bone marrow leukocytes from SIRPα^−/− mice. FIG. 1B includes a photograph of intestinal tissue and a line graph charting the change in body weight of mice in which colitis had been induced by treatment with 1% or 2% DSS. […] FIGS. 1C and 1D include data related to acute anemia and splenomegaly developed in SIRPα^−/− mice with colitis. WT mice and SIRPα^−/− mice treated with DSS (2% DSS for WT and 1% DSS for SIRPα^−/−) for 10 days were analyzed for the presence of […] (FIG. 1C) and the content of hemoglobin in peripheral blood (FIG. 1D). FIG. 1E includes a panel of photomicrographs in which hematoxylin and eosin (H&E) was used to stain sections of spleens from WT and SIRPα^−/− mice treated with 2% and 1% DSS for 10 days. The bar graph of FIG. 1E illustrates the hemoglobin content in the spleens of WT and SIRPα^−/− mice treated with water or DSS. FIG. 1F is a pair of line graphs showing the time course over which anemia developed in SIRPα^−/− mice when colitis was induced with DSS and the levels of IL-17 in the serum over that same period of time. FIG. 1G is a diagram showing that IL-17 neutralization ameliorates anemia and splenomegaly in SIRPα^−/− mice with colitis. An anti-IL-17 antibody (10 μg, i.v.) was given on days 6 and 8 (arrows) during DSS-induction of colitis. FIG. 1H is a diagram showing that IL-17-containing colitic serum induces acute anemia in SIRPα^−/− mice. Serum samples collected from healthy (Ctl.) and colitic WT mice (2% DSS, 10 d) were administered to healthy SIRPα^−/− mice (i.v., 3×, arrows) with or without an anti-IL-17 antibody. FIGS. 1I and 1J are illustrative graphs showing that IL-17 directly induces acute anemia and splenomegaly in SIRPα^−/− mice and Cd47^−/− mice. Healthy mice were given recombinant IL-17 (10 μg/kg, i.v.) on days 1 and 3 (arrows, FIG. 1J); anemia and splenomegaly were analyzed on day 5 (FIG. 1I) or in a time course manner (FIG. 1J). FIG. 1K includes diagrams showing that acute anemia and splenomegaly in SIRPα^−/− and Cd47^−/− mice under zymosan-peritonitis (3×, every other day), IL-6 administration ([…], i.v.), LPS (0.25 mg/kg, i.p.), and CFA (1×, s.c.) administrations. Error bars are ±SEM **P<0.01, ***P<0.001 vs. control or the beginning time point. Data presented in each panel represent at least three independent experiments with n≥4, if applicable.
Hemoglobin assay: To assay blood hemoglobin, 10 μl of whole blood were obtained from the tail vein followed by lysis in 1 ml distilled water. After centrifugation (13,000 rpm, 30 min), the hemoglobin-containing supernatants were collected and measured for the optical density at the wavelength of 540 nm.
Animal inflammation models: To induce peritonitis, mice (6-8 wk, 20-22 g) were intraperitoneally injected with 0.5 mg zymosan A (Sigma) in 0.5 ml sterile PBS followed by euthanasia at 2, 4, 6 and 8 hours. […] The colitic condition was then assessed by observing diarrhea, measuring body weight loss, increases of inflammatory cytokines, the shortage of the large intestine and intestinal tissue analyses (after euthanasia). […]

SIRPα = SIRPα immunoprecipitation and WB detection of SIRPα ITIM phosphorylation and SHP-1 association; format: cell-based, mouse; conditions: WT macrophages after LPS or IL-17 treatment
Description: FIGS. 4A-4E include data related to our experiments on macrophage phagocytic plasticity. FIG. 4A is a panel of illustrative line graphs showing that IL-10 inhibits macrophage phagocytosis toward “self.” PEMs were treated with LPS and activating cytokines along with various concentrations of IL-10 before testing their ability to phagocytose RBCs. FIG. 4B illustrates the phagocytic plasticity of WT red pulp macrophages. […] Treatments of cultured macrophages with LPS and IL-17 re-elicited their phagocytosis toward RBCs. […] Error bars are ±SEM. ***P<0.001 vs. freshly isolated splenic macrophages. FIG. 4D includes microscopic images of RBC phagocytosis by LPS- and IL-17-treated splenic macrophages. […] WT PEMs treated with LPS or IL-17 were further treated with Cd47^+ RBCs or Cd47-AP (10 min, 37° C.) followed by cell lysis, SIRPα immunoprecipitation, and WB detection of SIRPα phosphorylation (SIRPα^pY) and SHP-1 association. Data presented in each panel represent at least three independent experiments with n≥4, if applicable.
FIGS. 5A-5H include data related to our experiments on the role of Syk in phagocytic activation. […] PEMs were treated with LPS and cytokines in the presence of various inhibitors. After washing, inhibitor-free macrophages were tested for phagocytosis toward RBCs. […] PEMs treated with LPS and activating cytokines, or together with IL-10, were tested for total Syk and phosphorylated Syk (Syk^pY, specific at Y519/520). FIG. 5D describes PMA-induced macrophages phagocytosis toward RBCs. WT and SIRPα^−/− PEMs were treated with PMA (37° C., 30 min) before testing phagocytosis toward RBCs. FIG. 5E is a schematic depiction of PKC-Syk-mediated macrophage phagocytic activation toward self. […] Left: Inhibition of Syk by piceatannol and R406 prevented PMA-induced phagocytic activation. […] Error bars are ±SEM. ***P<0.001 vs. the respective controls. […] LPS-treated WT PEMs were further briefly treated with pervanadate before testing for phagocytosis toward RBCs. Error bars are ±SEM. ***P<0.001 vs. the respective controls. […]

Molecule	anemia and splenomegaly ([1]; SIRPα^−/− and CD47^−/− mice, zymosan 3 times every other day, IL-6 2×10 μg/kg i.v., LPS 0.25 mg/kg i.p., CFA s.c.)	SIRPα ITIM phosphorylation and SHP-1 association (SIRPα)	acute anemia and splenomegaly ([1]; CD47^−/− mice, IL-17 injection)	acute anemia and splenomegaly ([1]; healthy SIRPα^−/− mice, 2×10 μg/kg, i.v.)
lipopolysaccharide [LPS]	induced anemia and splenomegaly	a level of SIRPα ITIM phosphorylation and SHP-1 association even in the absence of extracellular CD47 ligation		
B1		a level of SIRPα ITIM phosphorylation and SHP-1 association even in the absence of extracellular CD47 ligation	induced acute anemia and splenomegaly	directly induced acute anemia and splenomegaly
